In publication PMC11623273 (2024) one finds Kd data, which are given here for one molecule.

This assay has as its target T1, soluble HCV E2 ectodomain (sE2) (hepatitis C virus).
T1 chain: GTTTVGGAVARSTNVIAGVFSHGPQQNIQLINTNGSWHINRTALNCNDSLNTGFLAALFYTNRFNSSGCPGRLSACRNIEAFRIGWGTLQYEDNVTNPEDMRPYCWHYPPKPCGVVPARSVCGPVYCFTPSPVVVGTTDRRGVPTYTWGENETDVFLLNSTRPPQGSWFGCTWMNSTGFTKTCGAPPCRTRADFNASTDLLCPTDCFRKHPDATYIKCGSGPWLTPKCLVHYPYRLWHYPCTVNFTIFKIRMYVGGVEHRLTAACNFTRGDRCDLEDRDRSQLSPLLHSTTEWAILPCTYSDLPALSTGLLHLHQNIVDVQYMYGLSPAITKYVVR

B1: Fab fragment of neutralizing antibody HCV1 (Fab, V domains shown)
VH: EVQLLESGGGVVQPGRSLRLSCTASGFTFNNYGMHWVRQTPGKGLEWLAVIWFDENNKYYADSVRGRFTISRDNSKNTLFLQMNSLKTEDTAMYYCARDISLVRDAFIYFDFWGLGTLVTVSS
VL: ELTLTQSPATLSLSPGERATLSCRASQSVSSYLAWYQQKPGQAPRLLIYDASNRATGIPARFSGSGSGTDFTLTISSLEPEDFAVYYCQQRSNWITFGQGTRLEIK
One may read the Kd as the free concentration of one partner at which half of the binding sites on the other are occupied at equilibrium, for simple one-to-one binding. A low value points to a tighter complex. B1: the dissociation constant (Kd) was 294 nM.
